The source of these data is patent US20080279847A1.

The target in assay [1] is tumor-associated glycoprotein-72 (TAG-72), used as TAG-72-positive BSM (bovine submaxillary mucin, type-1-S, Sigma) (bovine). Put plainly: competitive ELISA, whole IgG, reference 3E8. (In an ELISA, binding on a coated surface is turned into a signal by an enzyme label.)
Assay [2] has the same target. In words: competitive ELISA, whole IgG expressed in animal cells, reference 3E8 whole IgG (FIG. 9).
Assay [3] shares this target. Put plainly: competitive ELISA, whole IgG in COS7 culture supernatant.

B1: humanized antibody 3E8/BSM22 (whole IgG form) (antibody, V domains shown)
VH: QVQLVQSGAEVKKPGASVKVSCKASGYTFTDHAIHWVRQAPGQRLEWMGYFSPGNDDFKYSQKFQGRVTITADKSASTAYMELSSLRSEDTAVYYCARSWIMQYWGQGTLVTVSS
VL: DIVMTQSPDSLAVSLGERATIHCKSSQSILYSSNNKNYLAWYQQKPGQPPKLLLYWASTREAGVPDRFSGGGSGTDFTLTISSLQPEDSATYYCQQYNTYPLTFGGGTKVEIK
On to B1, for which the fold higher antigen binding affinity than the 3E8 antibody in assay [1] and in assay [2] was 1.5 fold each time. In addition, the Kd (usually the constant that tells how readily two partners part at equilibrium) in assay [3] amounted to 0.45 nM.
